Among the data in patent US20240270821A1, “GIP/GLP1/GCG TRI-RECEPTOR AGONISTS AND USES THEREOF” (priority 2023, published 2024) are cAMP Rel EC50 (1% HSA), Relative cAMP EC50 and cAMP Rel EC50, nM (in the presence of 1% HSA) values, retold here.

What all share (test): cell-based or functional assay
In one test the target is hGLP-1R (Homo sapiens, UniProt P43220).
The target in test [1] is T1, human GIP receptor (human) (UniProt P48546).
T1 sequence (looked up): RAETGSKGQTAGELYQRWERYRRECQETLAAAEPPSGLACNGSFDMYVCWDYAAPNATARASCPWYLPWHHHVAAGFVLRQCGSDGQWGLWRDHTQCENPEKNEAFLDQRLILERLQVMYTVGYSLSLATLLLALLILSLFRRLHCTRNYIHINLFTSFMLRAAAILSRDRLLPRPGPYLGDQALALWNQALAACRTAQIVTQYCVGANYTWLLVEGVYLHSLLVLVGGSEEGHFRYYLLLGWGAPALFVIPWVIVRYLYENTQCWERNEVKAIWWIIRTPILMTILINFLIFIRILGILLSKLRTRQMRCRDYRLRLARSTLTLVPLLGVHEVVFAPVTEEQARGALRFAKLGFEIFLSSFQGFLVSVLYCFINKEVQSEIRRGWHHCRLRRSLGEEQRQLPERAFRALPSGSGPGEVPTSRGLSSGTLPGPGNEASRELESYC

In test [2] the target is human glucagon receptor (human) (UniProt P47871).
human glucagon receptor (human), sequence (P47871 26-477): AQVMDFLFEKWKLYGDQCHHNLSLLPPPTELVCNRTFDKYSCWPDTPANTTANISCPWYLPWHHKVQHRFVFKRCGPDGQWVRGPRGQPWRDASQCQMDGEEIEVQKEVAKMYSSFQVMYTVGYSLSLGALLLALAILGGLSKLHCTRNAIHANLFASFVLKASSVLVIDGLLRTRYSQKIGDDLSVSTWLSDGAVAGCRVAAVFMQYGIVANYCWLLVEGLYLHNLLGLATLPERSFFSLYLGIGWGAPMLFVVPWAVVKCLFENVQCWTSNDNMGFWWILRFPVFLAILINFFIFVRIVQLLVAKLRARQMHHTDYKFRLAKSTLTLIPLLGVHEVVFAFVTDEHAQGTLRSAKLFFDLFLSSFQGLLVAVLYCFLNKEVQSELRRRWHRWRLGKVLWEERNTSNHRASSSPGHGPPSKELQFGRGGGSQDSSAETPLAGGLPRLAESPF

hGLP-1R, sequence (P43220 24-463): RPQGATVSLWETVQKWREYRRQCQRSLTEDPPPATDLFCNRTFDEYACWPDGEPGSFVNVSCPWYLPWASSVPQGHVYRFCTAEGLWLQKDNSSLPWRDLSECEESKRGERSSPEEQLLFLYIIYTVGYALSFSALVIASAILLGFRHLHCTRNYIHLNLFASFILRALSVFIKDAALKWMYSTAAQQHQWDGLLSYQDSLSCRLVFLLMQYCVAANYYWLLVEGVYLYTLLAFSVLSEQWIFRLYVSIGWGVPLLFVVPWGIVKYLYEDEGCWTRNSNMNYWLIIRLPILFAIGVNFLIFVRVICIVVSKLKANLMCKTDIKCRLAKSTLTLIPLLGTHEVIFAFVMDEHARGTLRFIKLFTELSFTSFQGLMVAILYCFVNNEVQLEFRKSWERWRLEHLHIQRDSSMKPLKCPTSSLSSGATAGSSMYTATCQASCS

B1: Example 650 (peptide)
chain: YXQGTXTSDXSIXLDKKAQXXFIEYLAEGGPSSGEPPPEGSEE
modifications: synthetic construct; SITE 2: note = 2-Aminoisobutyric Acid; SITE 6: note = alpha-methyl-2-fluoro-L-phenylalanine; SITE 10: note = 3-(4-Pyridyl)-L-alanine; SITE 13: note = alpha-methyl-leucine; SITE 17: note = Lysine is chemically modified through conjugation of the epsilon-amino group of the Lysine
For the molecule B1, the figures for the cAMP Rel EC50 (1% HSA) (with hGLP-1R; in test [1]; in test [2]) were 31.4 nM, 3.1 nM and 574 nM, respectively.

B2: Example 660 (peptide)
chain: YXQGTXTSDXSILLDKKAQXAFIEYLEEGGPSSGAPPPEGTGE
modifications: synthetic construct; SITE 2: note = 2-Aminoisobutyric Acid; SITE 6: note = alpha-methyl-2-fluoro-L-phenylalanine; SITE 10: note = 3-(4-Pyridyl)-L-alanine; SITE 17: note = Lysine is chemically modified through conjugation of the epsilon-amino group of the Lysine side chain with (gamma-Glu)2-CO-(CH2)1
For B2, the cAMP Rel EC50 (1% HSA) with hGLP-1R was 76.9 nM; in test [1] it was 4.64 nM; in test [2], 455 nM.

B3: Example 666 (peptide)
chain: YXQGTXTSDXSILLDKKAQXAFIEXLEEGGPSSGAPPPSGSGE
modifications: synthetic construct; SITE 2: note = 2-Aminoisobutyric Acid; SITE 6: note = alpha-methyl-2-fluoro-L-phenylalanine; SITE 10: note = 3-(4-Pyridyl)-L-alanine; SITE 17: note = Lysine is chemically modified through conjugation of the epsilon-amino group of the Lysine side chain with (gamma-Glu)2-CO-(CH2)1
Consider B3, for which the cAMP Rel EC50 (1% HSA) with hGLP-1R was determined as 32.3 nM; in test [1], 1.39 nM; in test [2], 224 nM.

B4: Example 665 (peptide)
chain: YXQGTXTSDXSILLDXKAQXAFIEXLEEGGPSSGAPPPSGTGE
modifications: synthetic construct; SITE 2: note = 2-Aminoisobutyric Acid; SITE 6: note = alpha-methyl-2-fluoro-L-phenylalanine; SITE 10: note = 3-(4-Pyridyl)-L-alanine; SITE 16: note = L-ornithine; SITE 17: note = Lysine is chemically modified through conjugation of the epsilon-amino group of the Lysine side chai
As for B4, the figures for the cAMP Rel EC50 (1% HSA) (with hGLP-1R; in test [1]; in test [2]) were 32.8 nM, 2.1 nM and 285 nM, respectively.

B5: Example 661 (peptide)
chain: YXQGTXTSDXSILLDKKAQXAFIEYLXEGGPSSGAPPPSGTGE
modifications: synthetic construct; SITE 2: note = 2-Aminoisobutyric Acid; SITE 6: note = alpha-methyl-2-fluoro-L-phenylalanine; SITE 10: note = 3-(4-Pyridyl)-L-alanine; SITE 17: note = Lysine is chemically modified through conjugation of the epsilon-amino group of the Lysine side chain with (gamma-Glu)2-CO-(CH2)1
B5: the cAMP Rel EC50 (1% HSA) is 50.9 nM with hGLP-1R, 4.62 nM in test [1] and 160 nM in test [2].

B6: Example 668 (peptide)
chain: YXQGTXTSDXSILLDKKAQXAFIEXLEEGGPSSGAPPPSGGGE
modifications: synthetic construct; SITE 2: note = 2-Aminoisobutyric Acid; SITE 6: note = alpha-methyl-2-fluoro-L-phenylalanine; SITE 10: note = 3-(4-Pyridyl)-L-alanine; SITE 17: note = Lysine is chemically modified through conjugation of the epsilon-amino group of the Lysine side chain with (gamma-Glu)2-CO-(CH2)1
As to B6, the cAMP Rel EC50 (1% HSA) stood at 27.1 nM with hGLP-1R, 1.69 nM in test [1] and 203 nM in test [2].

B7: Example 667 (peptide)
chain: YXQGTXTSDXSILLDKKAQXAFIEXLEEGGPSSGAPPPSGEGE
modifications: synthetic construct; SITE 2: note = 2-Aminoisobutyric Acid; SITE 6: note = alpha-methyl-2-fluoro-L-phenylalanine; SITE 10: note = 3-(4-Pyridyl)-L-alanine; SITE 17: note = Lysine is chemically modified through conjugation of the epsilon-amino group of the Lysine side chain with (gamma-Glu)2-CO-(CH2)1
Regarding B7, the cAMP Rel EC50 (1% HSA) stood at 33 nM with hGLP-1R, 1.46 nM in test [1] and 215 nM in test [2].

B8: Example 664 (peptide)
chain: YXQGTXTSDXSILLDKKAQXAFIEXLEEGGPSSGAPPPSGTGE
modifications: synthetic construct; SITE 2: note = 2-Aminoisobutyric Acid; SITE 6: note = alpha-methyl-2-fluoro-L-phenylalanine; SITE 10: note = 3-(4-Pyridyl)-L-alanine; SITE 17: note = Lysine is chemically modified through conjugation of the epsilon-amino group of the Lysine side chain with (gamma-Glu)2-CO-(CH2)1
Consider B8, for which the cAMP Rel EC50 (1% HSA) with hGLP-1R came to 27.7 nM; in test [1] it was 1.18 nM; in test [2] it was 179 nM.

B9: Example 663 (peptide)
chain: YXQGTXTSDXSILLDKKAQXAFIEYLXEGGPSSGAPPPSGTGE
modifications: synthetic construct; SITE 2: note = 2-Aminoisobutyric Acid; SITE 6: note = alpha-methyl-2-fluoro-L-phenylalanine; SITE 10: note = 3-(4-Pyridyl)-L-alanine; SITE 17: note = Lysine is chemically modified through conjugation of the epsilon-amino group of the Lysine side chain with (2-[2-(2-Amino-ethoxy))
B9: the results for the cAMP Rel EC50 (1% HSA) (in the test with hGLP-1R; in test [1]; in test [2]) were 79 nM, 10.2 nM and 226 nM, respectively.

B10: Example 669 (peptide)
chain: YXQGTXTSDXSILLDKKAQXAFIEXLEEGGPSSGAPPPSGTGE
modifications: synthetic construct; SITE 2: note = 2-Aminoisobutyric Acid; SITE 6: note = alpha-methyl-2-fluoro-L-phenylalanine; SITE 10: note = 3-(4-Pyridyl)-L-alanine; SITE 17: note = Lysine is chemically modified through conjugation of the epsilon-amino group of the Lysine side chain with (2-[2-(2-Amino-ethoxy))
Take B10: the cAMP Rel EC50 (1% HSA) with hGLP-1R worked out at 27.3 nM; in test [1], 1.41 nM; in test [2], 173 nM.

B11: Example 662 (peptide)
chain: YXQGTXTSDXSILLDKKAQXAFIEYLEEGGPSSGAPPPSGTGE
modifications: synthetic construct; SITE 2: note = 2-Aminoisobutyric Acid; SITE 6: note = alpha-methyl-2-fluoro-L-phenylalanine; SITE 10: note = 3-(4-Pyridyl)-L-alanine; SITE 17: note = Lysine is chemically modified through conjugation of the epsilon-amino group of the Lysine side chain with (2-[2-(2-Amino-ethoxy))
B11: the cAMP Rel EC50 (1% HSA) in the test with hGLP-1R came to 84.5 nM; in test [1], 4.69 nM; in test [2], 561 nM.

B12: Example 61 (peptide)
chain: YXQGTFTSDFSXXLDKKAQXAFIEYLLEXGPSSGAPPPSEG
modifications: synthetic construct; SITE 2: note = 2-Aminoisobutyric Acid; SITE 12: note = L-ornithine; SITE 13: note = alpha-methyl-leucine; SITE 17: note = Lysine is chemically modified through conjugation of the epsilon-amino group of the Lysine side chain with (2-[2-(2-Amino-ethoxy)-ethoxy]-acetyl)-(gamma-Glu)
Regarding B12, the Relative cAMP EC50 was found to be 2.05 nM in the test with hGLP-1R, 0.122 nM in test [1] and 3.57 nM in test [2]. For the same molecule, the cAMP Rel EC50, nM (in the presence of 1% HSA) with hGLP-1R was found to be 704 nM; in test [1], 55.2 nM; in test [2] it was 1310 nM.

B13: Example 63 (peptide)
chain: YXQGTFTSDFSXXLDKKAQXAFIEYLLEGGPSSGAPPPGGE
modifications: synthetic construct; SITE 2: note = 2-Aminoisobutyric Acid; SITE 12: note = L-ornithine; SITE 13: note = alpha-methyl-leucine; SITE 17: note = Lysine is chemically modified through conjugation of the epsilon-amino group of the Lysine side chain with (2-[2-(2-Amino-ethoxy)-ethoxy]-acetyl)-(gamma-Glu)
As to B13, the figures for the Relative cAMP EC50 (with hGLP-1R; in test [1]; in test [2]) were 4.78 nM, 0.255 nM and 4.1 nM, respectively. Further, the cAMP Rel EC50, nM (in the presence of 1% HSA) is 348 nM with hGLP-1R, 40.4 nM in test [1] and 709 nM in test [2].

B14: Example 659 (peptide)
chain: YXQGTXTSDXSILLDKKAQXAFIEYLEEGGPSSGAPPPEGTE
modifications: synthetic construct; SITE 2: note = 2-Aminoisobutyric Acid; SITE 6: note = alpha-methyl-2-fluoro-L-phenylalanine; SITE 10: note = 3-(4-Pyridyl)-L-alanine; SITE 17: note = Lysine is chemically modified through conjugation of the epsilon-amino group of the Lysine side chain with (gamma-Glu)2-CO-(CH2)1
For the molecule B14, the figures for the cAMP Rel EC50 (1% HSA) (with hGLP-1R; in test [1]; in test [2]) were 81.5 nM, 5.75 nM and 735 nM, respectively.
